Legend:
[1] = biological target: CITED2 218-256 218-256 (Homo sapiens) (UniProt Q99967); test: ITC
[2] = biological target: CITED2ΔN 224-256 (Homo sapiens) (UniProt Q99967); test: ITC
[3] = biological target: Flu-HIF-1α 786-826 (Homo sapiens) (UniProt Q16665); test: anisotropy
[4] = biological target: CITED2 218-256 218-256 (Homo sapiens) (UniProt Q99967); test: fluorescence anisotropy competition
[5] = biological target: CITED2ΔN 224-256 (Homo sapiens) (UniProt Q99967); test: fluorescence anisotropy competition

Chain of p300 TAZ1 330-420, Q09472 (Q09472 330-420): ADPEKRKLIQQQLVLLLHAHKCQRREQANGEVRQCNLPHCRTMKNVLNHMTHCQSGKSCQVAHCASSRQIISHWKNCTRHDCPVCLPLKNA
Chain of CITED2ΔN 224-256 (Homo sapiens) (Q99967 224-256, stated change not applied): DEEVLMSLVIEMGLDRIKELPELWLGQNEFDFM
Chain of CITED2 218-256 218-256 (Homo sapiens) (Q99967 218-256): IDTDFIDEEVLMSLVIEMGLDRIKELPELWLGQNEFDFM
Chain of Flu-HIF-1α 786-826 (Homo sapiens) (Q16665 786-826): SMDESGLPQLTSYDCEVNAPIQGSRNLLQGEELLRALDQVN

Substance: p300 TAZ1 330-420, Q09472
- Kd [1]: 10.6 nM
- Kd [2]: 50.5 nM
- Kd [3]: 64 nM
- Kd [4]: 2 nM
- Kd [5]: 86 nM
